IntAct's records for PubMed 23665169

Biological target: stk25_human STK25 (UniProt O00506)
Sequence (O00506 whole entry, looked up): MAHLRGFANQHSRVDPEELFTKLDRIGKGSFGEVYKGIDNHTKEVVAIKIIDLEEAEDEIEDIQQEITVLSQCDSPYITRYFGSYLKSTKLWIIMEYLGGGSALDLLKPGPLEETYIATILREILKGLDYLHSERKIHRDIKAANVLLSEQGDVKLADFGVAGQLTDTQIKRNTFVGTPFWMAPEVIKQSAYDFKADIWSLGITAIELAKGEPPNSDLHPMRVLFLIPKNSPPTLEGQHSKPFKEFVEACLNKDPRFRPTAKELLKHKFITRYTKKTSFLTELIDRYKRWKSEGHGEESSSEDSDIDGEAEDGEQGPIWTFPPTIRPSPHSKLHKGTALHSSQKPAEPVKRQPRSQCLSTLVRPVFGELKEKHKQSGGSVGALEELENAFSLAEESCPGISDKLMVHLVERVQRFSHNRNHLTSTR

Chain of Programmed cell death protein 10 (Homo sapiens), Q9BUL8 F76D;L80D;M83D (Q9BUL8 whole entry F76D/L80D/M83D): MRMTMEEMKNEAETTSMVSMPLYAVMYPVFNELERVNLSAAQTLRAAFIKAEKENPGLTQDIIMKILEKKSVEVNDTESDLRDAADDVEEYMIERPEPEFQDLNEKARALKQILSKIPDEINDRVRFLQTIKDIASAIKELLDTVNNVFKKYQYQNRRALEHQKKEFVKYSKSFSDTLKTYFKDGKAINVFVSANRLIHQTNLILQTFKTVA

## Programmed cell death protein 10 (Homo sapiens), Q9BUL8 F76D;L80D;M83D
  effect of a mutation on the interaction: decreasing interaction strength
